According to IntAct's records for PubMed 20453063:

target: chd8_human CHD8 (UniProt Q9HCK8)
Chain of UniProt Q9HCK8 (Q9HCK8 whole entry): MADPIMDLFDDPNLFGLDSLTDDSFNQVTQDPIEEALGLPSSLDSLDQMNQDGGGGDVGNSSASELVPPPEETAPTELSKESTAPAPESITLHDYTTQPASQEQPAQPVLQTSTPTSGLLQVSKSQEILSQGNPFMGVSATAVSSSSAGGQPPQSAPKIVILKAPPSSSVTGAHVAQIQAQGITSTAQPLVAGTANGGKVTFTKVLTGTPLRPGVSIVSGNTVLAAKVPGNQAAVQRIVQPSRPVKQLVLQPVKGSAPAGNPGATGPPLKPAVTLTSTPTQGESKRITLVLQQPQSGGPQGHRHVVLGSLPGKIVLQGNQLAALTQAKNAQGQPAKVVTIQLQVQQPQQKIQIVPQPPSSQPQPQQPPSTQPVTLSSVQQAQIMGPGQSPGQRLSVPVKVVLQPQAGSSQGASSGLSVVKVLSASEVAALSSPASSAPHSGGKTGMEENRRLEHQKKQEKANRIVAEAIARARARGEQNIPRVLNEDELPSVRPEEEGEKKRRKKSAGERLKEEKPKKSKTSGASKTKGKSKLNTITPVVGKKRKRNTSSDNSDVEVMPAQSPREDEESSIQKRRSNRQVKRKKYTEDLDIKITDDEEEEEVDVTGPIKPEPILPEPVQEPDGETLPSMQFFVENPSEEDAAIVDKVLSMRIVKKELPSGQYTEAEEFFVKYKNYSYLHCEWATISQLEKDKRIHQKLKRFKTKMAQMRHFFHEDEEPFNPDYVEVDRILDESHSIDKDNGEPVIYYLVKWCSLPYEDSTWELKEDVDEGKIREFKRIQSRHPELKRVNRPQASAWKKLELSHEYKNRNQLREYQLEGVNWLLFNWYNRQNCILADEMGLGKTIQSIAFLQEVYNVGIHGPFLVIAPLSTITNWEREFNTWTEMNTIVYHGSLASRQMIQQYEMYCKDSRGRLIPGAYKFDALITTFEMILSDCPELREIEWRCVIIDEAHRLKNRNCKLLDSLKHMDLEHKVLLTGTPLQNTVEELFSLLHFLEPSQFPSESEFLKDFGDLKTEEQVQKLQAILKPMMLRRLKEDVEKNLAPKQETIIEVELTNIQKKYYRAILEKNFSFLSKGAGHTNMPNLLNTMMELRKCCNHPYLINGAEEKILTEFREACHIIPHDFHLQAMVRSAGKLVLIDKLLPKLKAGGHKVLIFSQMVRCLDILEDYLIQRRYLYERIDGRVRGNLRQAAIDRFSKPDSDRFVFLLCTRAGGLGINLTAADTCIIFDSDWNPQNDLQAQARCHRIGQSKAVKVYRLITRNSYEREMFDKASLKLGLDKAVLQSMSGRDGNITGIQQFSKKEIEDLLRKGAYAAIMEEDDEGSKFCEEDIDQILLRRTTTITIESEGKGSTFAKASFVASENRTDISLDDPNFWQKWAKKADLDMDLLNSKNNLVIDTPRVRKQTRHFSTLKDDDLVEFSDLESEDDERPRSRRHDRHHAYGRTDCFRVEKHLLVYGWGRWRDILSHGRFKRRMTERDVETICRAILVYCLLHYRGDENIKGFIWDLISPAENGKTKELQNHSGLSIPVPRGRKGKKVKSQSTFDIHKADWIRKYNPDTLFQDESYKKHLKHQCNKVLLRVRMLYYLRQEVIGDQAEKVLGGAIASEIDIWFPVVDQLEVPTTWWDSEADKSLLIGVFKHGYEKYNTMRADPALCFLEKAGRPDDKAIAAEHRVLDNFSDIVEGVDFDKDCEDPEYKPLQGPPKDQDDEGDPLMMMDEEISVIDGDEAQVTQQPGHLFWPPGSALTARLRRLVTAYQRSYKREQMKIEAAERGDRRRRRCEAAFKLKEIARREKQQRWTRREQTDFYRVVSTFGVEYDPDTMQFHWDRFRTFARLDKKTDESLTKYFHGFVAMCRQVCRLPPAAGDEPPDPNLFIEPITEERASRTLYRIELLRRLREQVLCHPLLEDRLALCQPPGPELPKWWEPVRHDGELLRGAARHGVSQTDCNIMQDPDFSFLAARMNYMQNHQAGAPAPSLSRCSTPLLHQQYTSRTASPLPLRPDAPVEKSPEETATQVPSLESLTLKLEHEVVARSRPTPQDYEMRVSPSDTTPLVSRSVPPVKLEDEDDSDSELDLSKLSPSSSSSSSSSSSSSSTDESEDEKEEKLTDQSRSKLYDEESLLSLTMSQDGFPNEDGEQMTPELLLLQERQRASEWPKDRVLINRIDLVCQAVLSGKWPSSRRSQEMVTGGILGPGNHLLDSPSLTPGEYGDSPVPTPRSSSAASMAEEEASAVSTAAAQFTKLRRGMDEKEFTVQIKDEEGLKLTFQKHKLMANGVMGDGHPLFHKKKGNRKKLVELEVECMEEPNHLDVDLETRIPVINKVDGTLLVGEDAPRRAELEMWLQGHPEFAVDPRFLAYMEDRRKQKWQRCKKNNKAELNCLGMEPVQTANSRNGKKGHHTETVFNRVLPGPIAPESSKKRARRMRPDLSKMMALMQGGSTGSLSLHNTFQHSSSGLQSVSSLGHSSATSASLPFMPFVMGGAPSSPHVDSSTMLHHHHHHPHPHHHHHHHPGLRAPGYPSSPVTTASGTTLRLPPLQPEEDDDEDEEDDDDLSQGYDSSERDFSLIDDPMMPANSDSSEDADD

Effect of a mutation on the interaction, disrupting interaction:
Chromodomain-helicase-DNA-binding protein 7 (Homo sapiens), Q9P2D1 G2108R
Chromodomain-helicase-DNA-binding protein 7 (Homo sapiens), Q9P2D1 H2096R
Chromodomain-helicase-DNA-binding protein 7 (Homo sapiens), Q9P2D1 W2091R
